Laboratory results as given in publication doi:10.1101/2020.11.06.371997.

B1: TTAGGG2 duplex (dsDNA)
DNA 1: GGTTAGGGTTAG
DNA 2: CTAACCCTAACC
B2: TTAGGG4 duplex (dsDNA)
DNA 1: TTAGGGTTAGGGTTAGGGTTAGGG
DNA 2: CCCTAACCCTAACCCTAACCCTAA

Experiments:
[1] = molecular target: T1, Trf2ΔN-FG3 (UmTrf2) (Ustilago maydis, UniProt A0A0D1E1Z3 415-1528); assay: EMSA
[2] = molecular target: T1, Trf2ΔN-FG3 (UmTrf2); assay: EMSA; remark: listed apart in the source

Row | Binder | binding result [1] | Kd [2] [nM]
1 | B1 | no binding | 
2 | B2 |  | 20
